Marks after values point to notes of the source that are not given here.
Experiments:
[1] = Release of the drug compound from the drug complex in buffer (Example 8); assay type: physicochemical; details: for released amount of the drug (DX-8951), percentage of the drug in the drug complex used: 37° C., 50 μg/ml, after 20 hours
Procedure: (§1) (50 μg/ml). […] The released amount of the drug is expressed in percentage of the released amount of the drug to the amount of the drug in the drug complex used.

[2] = test system: Meth A tumor-bearing mice; assay: Maximum tolerated dose of the drug complexes of Examples 5, 6 and 7 (Example 9); assay type: in vivo, BALB/c mice; details: for BWLmax, maximum body-weight reduction rate / N, mice died/mice used / day when the maximum body-weight reduction was observed: single administration on the 13th day
Procedure: Meth A cells were transplanted into BALB/c mice to prepare Meth A tumor-bearing mice. On the 13th day, the drug complexes obtained in Examples 5, 6 and 7 were singly administered. After the administration, measurement of the body weight and observation of toxic death were made with time, and the maximum body-weight reduction rate and mortality were calculated, which are shown in Table 5. The dose is expressed in terms of the weight of anhydrous free base of DX-8951.
On the basis of the dose in which body weight reduction and death were observed, MTD of each complex were judged as follows.

[3] = Release of the drug compound from the drug complex in Meth A homogenate (Example 8); assay type: in vitro ADME, murine; details: for released amount of the drug (DX-8951), percentage of the drug in the drug complex used: 37° C., 50 μg/ml, after 20 hours
Procedure: as §1

Meth A cells = assay: Antineoplastic activity of the complexes of Examples 1, 5 and 6 (Example 10); assay type: in vivo, BALB/c mice; details: for IR, diminution rate of the tumor: 21th day; for Average tumor weight: tumor weighed on the 21th day
Procedure: Meth A cells were transplanted into BALB/c mice to prepare Meth A tumor-bearing mice. On the 7th day after the transplantation, the drug complexes shown in Examples 1, 5 and 6 were singly administered, respectively. The weight of the tumor was measured on the 21th day to evaluate the inhibitory activity on the tumor and the toxicity. In the table, * represents significance in Dunnet's test (*** p<0.001, ** P<0.01, * P<0.05), the dose is expressed in terms of the weight of anhydrous free base of DX-8951, and IR represents the diminution rate of the tumor.

[4] = Release of the drug compound from the drug complex in plasma (Example 8); assay type: in vitro ADME; details: 37° C., 50 μg/ml, after 20 hours
Procedure: as §1

[5] = 0.15625 mg/kg, singly administered on the 7th day
[6] = 0.3125 mg/kg, singly administered on the 7th day
[7] = 0.625 mg/kg, singly administered on the 7th day
[8] = 1.25 mg/kg, singly administered on the 7th day
[9] = 1.875 mg/kg, singly administered on the 7th day

Carboxymethyldextran polyalcohol-Gly-Gly-Phe-Gly-NH-p-C 6H4—CH2—O—CO-DX-8951 [Example 5]
released amount of the drug (DX-8951), percentage of the drug in the drug complex used ([1]; Buffer (pH 4.5)): 0.79% | released amount of the drug (DX-8951), percentage of the drug in the drug complex used ([1]; Buffer (pH 5.5)): 0.71% | released amount of the drug (DX-8951), percentage of the drug in the drug complex used ([1]; Buffer (pH 6.5)): 0.8% | release of the drug in words ([1]; buffer): hardly released | BWLmax, maximum body-weight reduction rate ([2]; 0.625 mg/kg): 2.0% | N, mice died/mice used ([2]; 0.625 mg/kg): 0/3 | day when the maximum body-weight reduction was observed ([2]; 0.625 mg/kg): 14 days | BWLmax, maximum body-weight reduction rate ([2]; 1.25 mg/kg): 5.0% | N, mice died/mice used ([2]; 1.25 mg/kg): 0/3 | day when the maximum body-weight reduction was observed ([2]; 1.25 mg/kg): 18 days | BWLmax, maximum body-weight reduction rate ([2]; 5 mg/kg): 28.6% | N, mice died/mice used ([2]; 5 mg/kg): 3/3 | day when the maximum body-weight reduction was observed ([2]; 5 mg/kg): 18 days | BWLmax, maximum body-weight reduction rate ([2]; 10 mg/kg): 27.1% | N, mice died/mice used ([2]; 10 mg/kg): 3/3 | day when the maximum body-weight reduction was observed ([2]; 10 mg/kg): 18 days | MTD relative to MTD of the drug complex obtained in Example 1 ([2]; Meth A tumor-bearing mice): about ⅓ | N, mice died/mice used ([2]; […]): 3/3 | released amount of the drug (DX-8951), percentage of the drug in the drug complex used ([3]; Meth A homogenate (pH 4.5)): 110.69% | released amount of the drug (DX-8951), percentage of the drug in the drug complex used ([3]; Meth A homogenate (pH 5.5)): 110.31% | released amount of the drug (DX-8951), percentage of the drug in the drug complex used ([3]; Meth A homogenate (pH 6.5)): 42.71% | release of the drug in words ([3]; weakly acidic homogenate): rapidly released | BWLmax, maximum body-weight reduction rate (Meth A cells; [5]): <0% | N, mice died/mice used (Meth A cells; [5]): 0/6 | IR, diminution rate of the tumor (Meth A cells; [5]): 9% | Average tumor weight (Meth A cells; [5]): 2.394 ± 0.231 g | BWLmax, maximum body-weight reduction rate (Meth A cells; [6]): <0% | N, mice died/mice used (Meth A cells; [6]): 0/6 | IR, diminution rate of the tumor (Meth A cells; [6]): 57% | Average tumor weight (Meth A cells; [6]): 1.128 ± 0.173*** g | BWLmax, maximum body-weight reduction rate (Meth A cells; [7]): <0% | N, mice died/mice used (Meth A cells; [7]): 0/6 | IR, diminution rate of the tumor (Meth A cells; [7]): 88% | Average tumor weight (Meth A cells; [7]): 0.328 ± 0.164*** g | BWLmax, maximum body-weight reduction rate (Meth A cells; [8]): <0% | N, mice died/mice used (Meth A cells; [8]): 0/6 | IR, diminution rate of the tumor (Meth A cells; [8]): 100% | Average tumor weight (Meth A cells; [8]): 0.010 ± 0.004*** g | BWLmax, maximum body-weight reduction rate (Meth A cells; [9]): 12.3% | N, mice died/mice used (Meth A cells; [9]): 0/6 | day when the maximum body-weight reduction was observed (Meth A cells; [9]): 13 days | IR, diminution rate of the tumor (Meth A cells; [9]): 100% | Average tumor weight (Meth A cells; [9]): 0.011 ± 0.003*** g | minimal effective dose relative to that of the drug complex shown in Example 1 (Meth A cells; Meth A tumor-bearing mice): about ⅓ | released amount of the drug (DX-8951), percentage of the drug in the drug complex used [4]: 0.13%

Reference: patent US6835807B1, “Drug complex and drug delivery system” (Daiichi Pharmaceuticals Co., Ltd., priority 1998, dated 2004)
